Test results from patent publication US12161669 (UMC UTRECHT HOLDING B V, dated 2024).

Molecular target: the molecule itself
Assay: flow cytometry FRET between anti-CD277-PE (donor) and anti-CD277-DyLight 680 (acceptor) on HEK 293 cells, medium or pamidronate (ABP)

B1: CD277 (butyrophilin BTN3A1) expressed on cells (Daudi, HEK 293, EBV-LCL 48) (receptor)
chain: not shown
notes: whole, on cells; The anti-CD277 antibodies may also see other BTN3 isoforms; also called CD277J
B1: binds.
